The values below come from US20210388087A1 (Chugai, published 2021).

Numbering of substitutions follows the chain as printed. In names and notes the source's numbering stands.

Sequences and labels used below:
B1: GPC3 ERY22-B (bispecific antibody, human IgG1, kappa, L234A L235A, N297A)
heavy 1: DIVMTQSPLSLPVTPGEPASISCRSSQSLVHSNRNTYLHWYQQKPGQAPRLLIYKVSNRFSGVPDRFSGSGSGTDFTLKISRVEAEDVGVYYCSQNTHVPPTFGQGTKLEIKSSASTKGPSVFPLAPSSKSTSGGTAALGCLVKDYFPEPVTVSWNSGALTSGVHTFPAVLQSSGLYSLSSVVTVPSSSLGTQTYICNVNHKPSNTKVDKKVEPKSCDKTHTCPPCPAPEAAGGPSVFLFPPKPKDTLMISRTPEVTCVVVDVSHEDPEVKFNWYVDGVEVHNAKTKPREEQYASTYRVVSVLTVLHQDWLNGKEYKCKVSNKALPAPIEKTISKAKGQPREPQVCTLPPSRDELTKNQVSLWCLVKGFYPSDIAVEWESNGQPENNYKTTPPVLDSDGSFFLYSKLTVDKSRWQQGNVFSCSVMHEALHNHYTQKSLSLSPHHHHHHHH
light 1: QVQLVQSGAEVKKPGASVKVSCKASGYTFTDYEMHWIRQPPGQGLEWIGAIDPKTGDTAYSQKFKGRVTLTADKSTSTAYMELSSLTSEDTAVYYCTRFYSYTYWGQGTLVTVSSASVAAPSVFIFPPSDEQLKSGTASVVCLLNNFYPREAKVQWKVDNALQSGNSQESVTEQDSKDSTYSLSSTLTLSKADYEKHKVYACEVTHQGLSSPVTKSFNRGEC
heavy 2: QVQLQQWGAGLLKPSETLSLTCAVYGGSFSGYYWSWIRQSPEKGLEWIGEINHGGYVTYNPSLESRVTISVDTSKNQFSLKLSSVTAADTAVYYCARDYGPGNYDWYFDLWGRGTLVTVSSASTKGPSVFPLAPSSKSTSGGTAALGCLVKDYFPEPVTVSWNSGALTSGVHTFPAVLQSSGLYSLSSVVTVPSSSLGTQTYICNVNHKPSNTKVDKKVEPKSCDKTHTCPPCPAPEAAGGPSVFLFPPKPKDTLMISRTPEVTCVVVDVSHEDPEVKFNWYVDGVEVHNAKTKPREEQYASTYRVVSVLTVLHQDWLNGKEYKCKVSNKALPAPIEKTISKAKGQPREPQVYTLPPSRCELTKNQVSLSCAVKGFYPSDIAVEWESNGQPENNYKTTPPVLDSDGSFFLVSKLTVDKSRWQQGNVFSCSVMHEALHNHYTQKSLSLSP
light 2: not shown
B2: GPC3 ERY22-dBBDu_189/L116 (bispecific antibody, human IgG1, kappa, L234A L235A, N297A)
heavy 1: B1 heavy 1
light 1: B1 light 1
heavy 2: QVQLVESGGGLVQPGRSLRLSCAASGFTFSNAWMHWVRQAPGKGLEWIAQIKDRSNQYATYYAPSVKGRFTISRDDSKNSIYLQMNSLKTEDTAVYYCHYVHYAQASSLLPSFGVDAWGQGTTVTVSSASTKGPSVFPLAPSSKSTSGGTAALGCLVKDYFPEPVTVSWNSGALTSGVHTFPAVLQSSGLYSLSSVVTVPSSSLGTQTYICNVNHKPSNTKVDKKVEPKSCDKTHTCPPCPAPEAAGGPSVFLFPPKPKDTLMISRTPEVTCVVVDVSHEDPEVKFNWYVDGVEVHNAKTKPREEQYASTYRVVSVLTVLHQDWLNGKEYKCKVSNKALPAPIEKTISKAKGQPREPQVYTLPPSRCELTKNQVSLSCAVKGFYPSDIAVEWESNGQPENNYKTTPPVLDSDGSFFLVSKLTVDKSRWQQGNVFSCSVMHEALHNHYTQKSLSLSPDYKDDDDK
light 2: DIVMTQSPLSLPVTPGEPASISCSSSQELVHANRQIYLHWYQQKPGQAPRLLIYKVANRFPGVPDRFSGSGSGTDFTLKISRVEAEDVGVYYCAQGTQVPFTFGQGTKLEIKRTVAAPSVFIFPPSDEQLKSGTASVVCLLNNFYPREAKVQWKVDNALQSGNSQESVTEQDSKDSTYSLSSTLTLSKADYEKHKVYACEVTHQGLSSPVTKSFNRGEC
B3: GPC3 ERY22-dBBDu_186/L098 (bispecific antibody, human IgG1, kappa, L234A L235A, N297A)
heavy 1: B1 heavy 1
light 1: B1 light 1
heavy 2: B2 heavy 2 with I48V, S108T, L109V, S112A
light 2: B2 light 2 with S24A, S25A, Q27E, A32I, Q35Y, Y37F, A57S, P61I, T97S
B4: GPC3 ERY22-dBBDu_186/L106 (bispecific antibody, human IgG1, kappa, L234A L235A, N297A)
heavy 1: B1 heavy 1
light 1: B1 light 1
heavy 2: B2 heavy 2 with I48V, S108T, L109V, S112A
light 2: B2 light 2 with S25T, Q27E, V30L, A32I, Q35F, Y37F, P61M, T97S
B5: GPC3 ERY22-dBBDu_183/L063 (bispecific antibody, human IgG1, kappa, L234A L235A, N297A)
heavy 1: B1 heavy 1
light 1: B1 light 1
heavy 2: B2 heavy 2 with I48V, R54K, S55G, Q57A, T60A, Q105S, S108T, L109V, S112A
light 2: B2 light 2 with S24R, A32T, Q35H, I36T, A57S
B6: GPC3 ERY22-dBBDu_167/L091 (bispecific antibody, human IgG1, kappa, L234A L235A, N297A)
heavy 1: B1 heavy 1
light 1: B1 light 1
heavy 2: B2 heavy 2 with I48V, R54K, S55G, Q57L, T60A, Q105S, S107G, S108G, L109G, S112G
light 2: DIVMTQSPLSLPVTPGEPASISCSASESLLHNNRHTYLHWYQQKPGQAPRLLIYRVSNRFNGVPDRFSGSGSGTDFTLKISRVEAEDVGVYYCGQGTQVPFTFGQGTKLEIKRTVAAPSVFIFPPSDEQLKSGTASVVCLLNNFYPREAKVQWKVDNALQSGNSQESVTEQDSKDSTYSLSSTLTLSKADYEKHKVYACEVTHQGLSSPVTKSFNRGEC
B7: GPC3 ERY22-dBBDu_183/L072 (bispecific antibody, human IgG1, kappa, L234A L235A, N297A)
heavy 1: B1 heavy 1
light 1: B1 light 1
heavy 2: B2 heavy 2 with I48V, R54K, S55G, Q57A, T60A, Q105S, S108T, L109V, S112A
light 2: B2 light 2 with S24Q, S25A, A32M, Q35N, I36T, A57S, Q98S
B8: GPC3 ERY22-dBBDu_186/L096 (bispecific antibody, human IgG1, kappa, L234A L235A, N297A)
heavy 1: B1 heavy 1
light 1: B1 light 1
heavy 2: B2 heavy 2 with I48V, S108T, L109V, S112A
light 2: B2 light 2 with S24R, S25T, A32I, Q35Y, Y37F, A57Y, P61Q, Q98S, F101Y
B9: GPC3 ERY22-dBBDu_189/L119 (bispecific antibody, human IgG1, kappa, L234A L235A, N297A)
heavy 1: B1 heavy 1
light 1: B1 light 1
heavy 2: B2 heavy 2
light 2: B2 light 2 with S24T, S25A, A32I, Q35F, Y37F, A57S, P61I, T97S
B10: dBBDu183H Y94D / dBBDu072L (antibody, name in Kabat numbering, V domains shown)
VH: QVQLVESGGGLVQPGRSLRLSCAASGFTFSNAWMHWVRQAPGKGLEWVAQIKDKGNAYAAYYAPSVKGRFTISRDDSKNSIYLQMNSLKTEDTAVYYCHDVHYASASTVLPAFGVDAWGQGTTVTVSS
VL: DIVMTQSPLSLPVTPGEPASISCQASQELVHMNRNTYLHWYQQKPGQAPRLLIYKVSNRFPGVPDRFSGSGSGTDFTLKISRVEAEDVGVYYCAQGTSVPFTFGQGTKLEIK
notes: as m1, one VH change
B11: dBBDu183H Y94S / dBBDu072L (antibody, name in Kabat numbering, V domains shown)
VH: B10 VH with D100S
VL: B10 VL
notes: as m1, one VH change
B12: dBBDu183H Y94Q / dBBDu072L (antibody, name in Kabat numbering, V domains shown)
VH: B10 VH with D100Q
VL: B10 VL
notes: as m1, one VH change
B13: dBBDu183H Y94N / dBBDu072L (antibody, name in Kabat numbering, V domains shown)
VH: B10 VH with D100N
VL: B10 VL
notes: as m1, one VH change
B14: dBBDu183H Y94F / dBBDu072L (antibody, name in Kabat numbering, V domains shown)
VH: B10 VH with D100F
VL: B10 VL
notes: as m1, one VH change
B15: dBBDu183H Y97F / dBBDu072L (antibody, name in Kabat numbering, V domains shown)
VH: B10 VH with D100Y, Y103F
VL: B10 VL
notes: as m1, one VH change
B16: dBBDu183H Y94T / dBBDu072L (antibody, name in Kabat numbering, V domains shown)
VH: B10 VH with D100T
VL: B10 VL
notes: as m1, one VH change
B17: dBBDu183H Y97W / dBBDu072L (antibody, name in Kabat numbering, V domains shown)
VH: B10 VH with D100Y, Y103W
VL: B10 VL
notes: as m1, one VH change

T1 sequence (chain, as listed by the source limits assumed): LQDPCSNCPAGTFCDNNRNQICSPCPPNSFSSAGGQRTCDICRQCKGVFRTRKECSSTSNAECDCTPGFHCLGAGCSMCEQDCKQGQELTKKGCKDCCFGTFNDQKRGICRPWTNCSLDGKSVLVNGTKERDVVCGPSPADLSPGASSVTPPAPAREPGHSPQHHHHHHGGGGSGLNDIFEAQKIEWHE

The first experiment deals with human CD137 on HDLM-2 cells (human, UniProt Q07011 24-255). The experiment is described as follows: cell-based or functional assay.
Sequence of human CD137 on HDLM-2 cells (Q07011 24-255): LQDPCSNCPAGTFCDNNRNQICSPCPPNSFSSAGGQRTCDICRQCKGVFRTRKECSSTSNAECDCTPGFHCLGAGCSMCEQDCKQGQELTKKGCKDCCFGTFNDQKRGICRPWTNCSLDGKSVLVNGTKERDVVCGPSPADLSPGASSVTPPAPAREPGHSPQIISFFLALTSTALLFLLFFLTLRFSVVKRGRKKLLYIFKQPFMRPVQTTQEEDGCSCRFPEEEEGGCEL
On to B1, for which the “Agonistic activity compared to B, antibody 6 ug/mL” value is 100%; the “Agonistic activity compared to B, antibody 30 ug/mL” value came to 100%; the “Agonistic activity compared to Ctrl, antibody 6 ug/mL” value came out at 347%; the “Agonistic activity compared to Ctrl, antibody 30 ug/mL” value was 380%. The “hIL-6 (pg/mL), antibody 6 ug/mL” value amounted to 4520 pg/mL and the “hIL-6 (pg/mL), antibody 30 ug/mL” value came to 4340 pg/mL.
Take B2: the “Agonistic activity compared to B, antibody 6 ug/mL” value turned out to be 8.28%; the “Agonistic activity compared to B, antibody 30 ug/mL” value was 19.2%; the “Agonistic activity compared to Ctrl, antibody 6 ug/mL” value came to 28.7%; the “Agonistic activity compared to Ctrl, antibody 30 ug/mL” value turned out to be 72.9%. Also, the “hIL-6 (pg/mL), antibody 6 ug/mL” value was found to be 1300 pg/mL and the “hIL-6 (pg/mL), antibody 30 ug/mL” value was 1570 pg/mL.
Consider B3, for which the “Agonistic activity compared to B, antibody 6 ug/mL” value worked out at 13.9%; the “Agonistic activity compared to B, antibody 30 ug/mL” value stood at 24.6%; the “Agonistic activity compared to Ctrl, antibody 6 ug/mL” value is 48.3%; the “Agonistic activity compared to Ctrl, antibody 30 ug/mL” value is 93.5%. For the same molecule, the “hIL-6 (pg/mL), antibody 6 ug/mL” value was determined as 1500 pg/mL and the “hIL-6 (pg/mL), antibody 30 ug/mL” value is 1750 pg/mL.
For B4, the “Agonistic activity compared to B, antibody 6 ug/mL” value was found to be 13.2%; the “Agonistic activity compared to B, antibody 30 ug/mL” value worked out at 19.4%; the “Agonistic activity compared to Ctrl, antibody 6 ug/mL” value was determined as 45.8%; the “Agonistic activity compared to Ctrl, antibody 30 ug/mL” value was found to be 73.6%. Further, the “hIL-6 (pg/mL), antibody 6 ug/mL” value was determined as 1480 pg/mL and the “hIL-6 (pg/mL), antibody 30 ug/mL” value amounted to 1570 pg/mL.
On to B5, for which the “Agonistic activity compared to B, antibody 6 ug/mL” value is -1.27%; the “Agonistic activity compared to B, antibody 30 ug/mL” value was 6.51%; the “Agonistic activity compared to Ctrl, antibody 6 ug/mL” value is -4.41%; the “Agonistic activity compared to Ctrl, antibody 30 ug/mL” value was found to be 24.7%. Moreover, the “hIL-6 (pg/mL), antibody 6 ug/mL” value worked out at 968 pg/mL and the “hIL-6 (pg/mL), antibody 30 ug/mL” value amounted to 1130 pg/mL.
B6: the “Agonistic activity compared to B, antibody 6 ug/mL” value is -2.21%; the “Agonistic activity compared to B, antibody 30 ug/mL” value is 1.1%; the “Agonistic activity compared to Ctrl, antibody 6 ug/mL” value was -7.68%; the “Agonistic activity compared to Ctrl, antibody 30 ug/mL” value came out at 4.19%. Moreover, the “hIL-6 (pg/mL), antibody 6 ug/mL” value turned out to be 935 pg/mL and the “hIL-6 (pg/mL), antibody 30 ug/mL” value was found to be 944 pg/mL.
As to B7, the “Agonistic activity compared to B, antibody 6 ug/mL” value stood at 3.21%; the “Agonistic activity compared to B, antibody 30 ug/mL” value stood at 15.8%; the “Agonistic activity compared to Ctrl, antibody 6 ug/mL” value was determined as 11.1%; the “Agonistic activity compared to Ctrl, antibody 30 ug/mL” value stood at 59.8%. For the same molecule, the “hIL-6 (pg/mL), antibody 6 ug/mL” value was found to be 1130 pg/mL and the “hIL-6 (pg/mL), antibody 30 ug/mL” value was found to be 1450 pg/mL.
Regarding B8, the “Agonistic activity compared to B, antibody 6 ug/mL” value was determined as 19%; the “Agonistic activity compared to B, antibody 30 ug/mL” value came to 24.2%; the “Agonistic activity compared to Ctrl, antibody 6 ug/mL” value was 66.1%; the “Agonistic activity compared to Ctrl, antibody 30 ug/mL” value was 91.7%. Further, the “hIL-6 (pg/mL), antibody 6 ug/mL” value amounted to 1680 pg/mL and the “hIL-6 (pg/mL), antibody 30 ug/mL” value was determined as 1740 pg/mL.
As for B9, the “Agonistic activity compared to B, antibody 6 ug/mL” value turned out to be 6.92%; the “Agonistic activity compared to B, antibody 30 ug/mL” value was found to be 20.4%; the “Agonistic activity compared to Ctrl, antibody 6 ug/mL” value amounted to 24%; the “Agonistic activity compared to Ctrl, antibody 30 ug/mL” value worked out at 77.3%. Besides, the “hIL-6 (pg/mL), antibody 6 ug/mL” value amounted to 1260 pg/mL and the “hIL-6 (pg/mL), antibody 30 ug/mL” value is 1610 pg/mL.

The next experiment addresses T1, Human CD137 ECD (human).
T1 construct: also called 4-1BB
The experiment is described as follows: SPR, vs parent H183/L072.
For the molecule B10, the “fold change of affinity” value was 0.2 fold.
The same measure, in the same setting: to B11 belongs 1.4 fold; to B12, 0.3 fold; to B13, 0.1 fold.
For the molecule B14, the “fold change of affinity” value stood at 1.8 fold.
For the molecule B15, the “fold change of affinity” value came to 1.8 fold.
The same measure, in the same setting: to B16 belongs 0.6 fold; to B17, 0.8 fold.
